Assay results from patent publication US20220119492A1 (MEDIKINE, published 2022).
Bridge positions count the residues as written; N and C are the ends. Ends that are not written are not given here.

T1: human IL-2Rβ (CD122 protein, Fc Tag) (27-239) (human, UniProt P14784 27-239)
T1 construct: range 27-239; Bought protein; also called hu-IL-2Rβ subunit; IL-2Rβ subunit; not shown: Fc tag of the bought protein
T1 sequence (looked up): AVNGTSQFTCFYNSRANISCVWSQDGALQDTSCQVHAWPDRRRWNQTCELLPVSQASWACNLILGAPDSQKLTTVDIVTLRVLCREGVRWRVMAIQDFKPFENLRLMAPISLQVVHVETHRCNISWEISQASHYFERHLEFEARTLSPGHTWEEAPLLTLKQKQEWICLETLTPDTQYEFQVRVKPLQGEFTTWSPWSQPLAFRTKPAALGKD


biological target: T1, human IL-2Rβ (CD122 protein, Fc Tag) …; experiment: phage ELISA competition
Outline: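 Competitive binding ELISA in which a phage tracer competes with test ligands for human IL-2Rβ-Fc; IC50 is derived from the absorbance signal across the ligand dilution series. Without washing, 50 μL of phage tracer was added for 45 min at 4° C. Bound phage was detected with TMB for 1 to 15 min at 25° C, followed by stop solution and absorbance at 450 nm.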

IC50, < 100 µM:
RYVPDCLKAQVGDLCDFFAW [SEQ ID NO 2822]
WYPCWMAKVGELCDME [SEQ ID NO 2824]
DGWWPCWIAQVGELCDLEDPV [SEQ ID NO 2834]
WWPCEWARIGELCDLE (disulfide 4-13 (inferred)) [SEQ ID NO 2816]
SRVWHPCWLARVGELCDLEVSD [SEQ ID NO 2829]
EWFHDCFLAKVGDLCDLFLW [SEQ ID NO 2811]
KWFHDCFLAKVGDLCDLFLW [SEQ ID NO 2864]
WLPCWIAKIGDLCDLD [SEQ ID NO 2828]
DKAGPNFYPCWLAHVGELCDQA [SEQ ID NO 2813]
RGVYFPCWLAKVGDLCDSDEF [SEQ ID NO 2819]
YRWWYPCDIAQVGELCDLDYLL [SEQ ID NO 2826]
WYPCWLAQVGELCDRE (disulfide 4-13 (inferred)) [SEQ ID NO 2818]
HRGWVGWYPCEYALPGQLCDLE [SEQ ID NO 2831]
RAWWWPCELAQVGELCDLEPSS [SEQ ID NO 2820]
LPFQDCYIAQVGELCDLPGT [SEQ ID NO 2835]
AGFRGRWWPCEYAQVGELCDLE [SEQ ID NO 2814]
KGSSWFPCYFAQVGDLCDLY (disulfide 8-17 (inferred)) [SEQ ID NO 2817]
WFPCWLAKVGELCDRDDLAGPS [SEQ ID NO 2815]
QITDSGWYPCWVAKVGELCDMD (disulfide 10-19 (inferred)) [SEQ ID NO 2825]
WEHEFTWYPCWIAQVGELCDMD [SEQ ID NO 2830]
WWPCYLAQIGELCDLV [SEQ ID NO 2823]
SGKTQMWNPCYVAKVGELCDLV [SEQ ID NO 2812]
RVRRHSWWPCEIAVVGELCDLE [SEQ ID NO 2833]
WYPCWLAKVGELCDQE [SEQ ID NO 2821]
WYPCWLAQLGELCDQDWDTPS [SEQ ID NO 2832]
